Columns and labels:
Assay type in all cases: biochemical
[1] = KARI assay of purified S. exigua KARI and variants with NADH (Examples 6-9); conditions: for Ratio NADH/NADPH (U/mg): specific activity ratio
Method in brief: (§1)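 Kinetic read of NAD(P)H consumption at 340 nm in 100 mM potassium phosphate pH 7.0 with 1 mM DTT, 2.5 mM (S)-2-acetolactate and 10 mM MgCl2, cofactor 200 μM final. For Michaelis–Menten constants, NADPH was varied 200–12 μM and NADH 200–6 μM.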

[2] = KARI assay of purified S. exigua KARI and variants with NADPH (Examples 6-9)
Method in brief: as §1

[3] = High-throughput screening of KARI variant libraries in E. coli lysates
Method: For growth and expression of KARI variants in deep well plates, sterile toothpicks were used to pick single colonies into shallow 96-well plates filled with 300 μL LBamp. Fifty μL of these overnight cultures were used to inoculate deep well plates filled with 600 μL of LBamp per well. The plates were grown at 37° C. with shaking at 250 rpm for 3 h. One hour before induction with IPTG (final concentration 0.5 mM), the temperature of the incubator was reduced to 25° C. After induction, growth and expression continued for 20 h at 25° C. and 250 rpm. Cells were harvested at 5,300 g and 4° C. and then stored at −20=C. The plates always contained four wild-type or parent S. exigua KARI colonies, three BL21(DE3) colonies carrying pET22b(+) to control for background reactions in cell lysates, and one well that contained only media to make sure the plates were free of contaminations.
Frozen cell pellets were thawed at room temperature for 20 min and then 200 μL of lysis buffer (100 mM Kpi, 750 mg/L lysozyme, 10 mg/L DNaseI, pH 7) were added. Plates were vortexed to resuspend the cell pellets. After a 60 min incubation phase at 37° C. and shaking at 130 rpm, plates were centrifuged at 5,300 g and 4° C. for 10 min. […] The depletion of NAD(P)H was monitored at 340 nm in a plate reader (TECAN) over 200 s.

B1: Se1_KARI^4E10: S. exigua KARI variant L57V, R58P, S61C (protein, UniProt D0WGK0 1-342, looked up, variant L57V R58P S61C)
Ketol-acid reductoisomerase …: MSVKTKEKEMAVTILYEQDVDPKVIQGLKVGIIGYGSQGHAHALNLMDSGVDVRVGVPEGCSSWKTAEEAGLKVTDMDTAAEEADVIMVLVPDEIQPKVYQEHIAAHLKAGNTLAFAHGFNIHYGYIVPPEDVNVIMCAPKGPGHIVRRQFTEGSGVPDLACVQQDATGNAWDIVLSYCWGVGGARSGIIKATFAEETEEDLFGEQAVLCGGLVELVKAGFETLTEAGYPPELAYFECYHEMKMIVDLMYESGIHFMNYSISNTAEYGEYYAGPKVINEQSREAMKEILKRIQDGSFAQEFVDDCNNGHKRLLEQREAINTHPIETTGAQIRSMFSWIKKED
- kcat NADH [1]: 0.90 s⁻¹
- kcat/Km ratio NADH/NADPH (cofactor specificity) [1]: 0.1
- U/mg NADH (specific activity) ([1]; cofactor NADH): 0.36 U/mg
- Km ([1]; read-out: Km for cofactor NADH): 49 µM
- Ratio NADH/NADPH (U/mg) [1]: 1.0
- Ratio NADH/NADPH (U/mg) ([1]; listed as 4E10): 1
- kcat NADPH [2]: 0.90 s⁻¹
- U/mg NADPH (specific activity) ([2]; cofactor NADPH): 0.36 U/mg
- Km ([2]; read-out: Km for cofactor NADPH): 4 µM
- NADH/NADPH activity ratio in the screen/rescreen relative to parent [3]: more than doubled
